Data from patent US20170037133A1.

Key:
CD155 (PVR) = CD155 (PVR) (UniProt P15151); experiment: cell-based or functional assay
CD112 (Nectin-2, PVRL2) = CD112 (Nectin-2, PVRL2) (UniProt Q92692); experiment: cell-based or functional assay
UniProt Q92692, sequence (Q92692 32-538 limits assumed): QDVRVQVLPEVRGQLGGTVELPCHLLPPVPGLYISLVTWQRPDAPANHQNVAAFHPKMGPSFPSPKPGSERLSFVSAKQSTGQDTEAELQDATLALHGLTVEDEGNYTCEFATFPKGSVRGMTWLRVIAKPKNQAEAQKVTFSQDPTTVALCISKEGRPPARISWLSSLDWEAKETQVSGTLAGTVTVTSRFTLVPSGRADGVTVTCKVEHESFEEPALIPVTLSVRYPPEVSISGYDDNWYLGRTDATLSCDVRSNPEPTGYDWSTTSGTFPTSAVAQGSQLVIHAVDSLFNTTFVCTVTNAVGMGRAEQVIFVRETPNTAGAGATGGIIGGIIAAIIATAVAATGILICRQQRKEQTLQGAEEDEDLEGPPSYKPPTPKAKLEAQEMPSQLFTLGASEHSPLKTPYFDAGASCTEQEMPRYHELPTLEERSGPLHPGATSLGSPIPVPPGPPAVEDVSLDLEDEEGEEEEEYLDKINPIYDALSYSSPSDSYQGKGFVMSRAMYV

MV4-11 cell lysis in the presence of 0.1 ng/ml AMG 330 (CD155 (PVR)) | MV4-11 cell lysis in the presence of 0.1 ng/ml AMG 330 (CD112 (Nectin-2, PVRL2)) | Substance | cell kill of MV4-11 (7-AAD positive target cells, 24 h co-culture with PBMCs, no AMG 330) (CD155 (PVR)) | cell kill of MV4-11 (7-AAD positive target cells, 24 h co-culture with PBMCs, no AMG 330) (CD112 (Nectin-2, PVRL2))
49.7% | – | mouse anti-PVR clone D171 (antibody) | 33% | –
– | 57.9% | mouse anti-PVRL2 clone L14 (antibody) | – | 40.4%
